According to patent publication US20240167005A1, “MODIFIED SHIGELLA APYRASE AND USES THEREOF” (APIRAYS BIOSCIENCES AB, priority 2021, published 2024):
Where a chain is given by its changes, count along the chain named. Numbers in names are those of the source.

Legend:
[1] = system: O=[N+]([O-])c1ccc(OP(=O)(O)O)cc1; assay: pNPP dephosphorylation (Example 3), mutant; assay type: biochemical, Shigella flexneri; conditions: other: mutant of Example 1, 50 mM Tris, pH 7.5, 37° C., 15 min, 2 μg enzyme
Procedure: In order to improve the activity of apyrase and its tolerance to high salt conditions, the inventors mutated the apyrase gene randomly using an error prone PCR method starting from the wild-type Shigella flexneri apyrase DNA sequence (SEQ ID NO: 4) as template. The method incorporates repeated copying of the template at high MgCl2 concentration (5 mM) with Taq polymerase. After every fourth cycle, one fifth of the reaction mixture was transferred to fresh PCR tube and the same process was repeated 22 times to obtain a product that will have randomly mutated nucleotides which can be identified by sequencing. The mutated gene was cloned in pET21a vector. The mutated DNA sequence obtained is presented as SEQ ID NO: 2, containing a total of 31 mutations leading to amino-acid changes (see SEQ ID NO:3 compared to the wild-type amino-acid sequence of SEQ ID NO: 1).
(§1) Products: para Nitro phenol (PNP, yellow colour, absorbance at 405 nm) and phosphate • pNPP+Apyrase→PNP+Pi
To further study the capability of the mutant enzyme to hydrolyse pNPP, the substrate (pNPP) was titrated and incubated with the mutant apyrase. […]
The enzymes (2 μg) were incubated with different concentrations of pNPP (dissolved in 50 mM Tris, pH 7.5) in a 100 μL reaction mixture. […] These were incubated at 37° C. for 15 minutes and absorbance was taken at 405 nm.

[2] = system: Nc1ncnc2c1ncn2[C@@H]1O[C@H](COP(=O)(O)OP(=O)(O)OP(=O)(O)O)[C@@H](O)[C@H]1O; assay: Affinity of ATP to EIEC apyrase (Table 6); assay type: biochemical; conditions: other: EIEC apyrase, pH 7.5, 37.0 °C
Source text: (§2) Respective colorimetric/fluorescence assays (mentioned above).

[3] = system: O=[N+]([O-])c1ccc(OP(=O)(O)O)cc1; assay: Affinity of pNPP to EIEC apyrase (Table 6); assay type: biochemical; conditions: other: EIEC apyrase, pH 7.5, 37.0 °C
Source text: (§3) The formation of product. Para-nitro phenol was monitored colorimetrically at 405 nm using multi-mode spectrophotometer (Biotek instruments).
as §2

[4] = system: O=[N+]([O-])c1ccc(OP(=O)(O)O)cc1; assay: Affinity towards pNPP, L66V; assay type: biochemical, Shigella flexneri; conditions: other: L66V, 50 mM Tris-HCl pH 7.5, 37° C., 20 min, 500 ng enzyme
Source text: However, not all reactions successfully generated PCR products by agarose gel electrophoresis. The successful mutations were transformed into the expression host and proteins were expressed and purified to homogeneity by affinity chromatography.
Other substrates like 2-Glycerophosphate, Pyridoxal phosphate and phenyl phosphate were not hydrolysed by the mutants (Table 2 and FIG. 8A-B).
as §3, §2

[5] = system: Cc1ncc(C[n+]2csc(CCO[P@](=O)(O)OP(=O)(O)O)c2C)c(N)n1; assay: purified protein, by the assay type; conditions: other: L66V, TPP, 50 mM Tris-HCl pH 7.5, 37° C., 20 min, 500 ng enzyme
Procedure: The kinetic curves were plotted and the Michaelis Menten constant (Km) was calculated using GraphPad Prism 5.0 software.

[6] = system: alkaline phosphatase; assay: pNPP dephosphorylation (Example 3), alkaline phosphatase; assay type: biochemical; conditions: carbonate buffer pH 10.3, 37° C., 15 min, 2 μg enzyme
Procedure: as §1
(§4) To further study the capability of the mutant enzyme to hydrolyse pNPP, the substrate (pNPP) was titrated and incubated with the mutant apyrase. As controls, alkaline phosphatase (known to hydrolyse pNPP) and the wildtype enzyme were also included.
(§5) The enzymes (2 μg) were incubated with different concentrations of pNPP (dissolved in 50 mM Tris, pH 7.5) in a 100 μL reaction mixture. For alkaline phosphatase, pNPP was dissolved in carbonate buffer (pH 10.3). Control reaction with pNPP lacking WT, mutant apyrase and alkaline phosphatase was also included. These were incubated at 37° C. for 15 minutes and absorbance was taken at 405 nm.

[7] = system: EIEC apyrase variant H116L; assay: Affinity of pNPP to EIEC H116L (Table 6); assay type: biochemical
Source text: as §3, §2

[8] = molecular target: T1, wild-type Shigella flexneri apyrase, SEQ ID NO: 1 (Shigella flexneri, UniProt Q59909); assay: pNPP dephosphorylation (Example 3), wild type; assay type: biochemical; conditions: 50 mM Tris, pH 7.5, 37° C., 15 min, 2 μg enzyme
T1 sequence (Q59909 26-246): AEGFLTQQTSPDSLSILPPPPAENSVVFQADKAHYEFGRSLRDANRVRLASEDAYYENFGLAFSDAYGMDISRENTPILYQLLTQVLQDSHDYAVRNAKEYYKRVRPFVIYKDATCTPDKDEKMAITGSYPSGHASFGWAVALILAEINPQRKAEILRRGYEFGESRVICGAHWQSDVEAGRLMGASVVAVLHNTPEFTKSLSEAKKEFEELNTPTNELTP
Procedure: as §1, §4, §5

[9] = Whole cell ATP degradation activity assay (periplasmic samples, AMFAS); assay type: biochemical; conditions: induced cells, lysozyme/EDTA, 37° C., 30 minutes
Procedure: As a crude assay for confirming expression of active enzyme, a whole cell ATP degradation activity assay was performed. 100 mM ATP was prepared in 50 mM Tris, pH 7.5. After dissolution, the pH was adjusted to 7.5 using NaOH. Pellets from 1 mL culture of induced cells were taken and washed twice with saline containing 1 mM Calcium chloride. The cells were treated with Lysozyme and EDTA to lyse the cell wall to release the periplasmic contents.
150 μL of 40 mM EDTA and 150 μL of 10 mM ATP was added to the pellet and mixed well, followed by incubation at 37° C. for 30 minutes.

[10] = ATP hydrolysis using purified recombinant apyrase (AMFAS, Example 2); assay type: biochemical
Procedure: A titrated series of ATP solutions from 100 mM to 0.01 mM in 50 mM Tris, pH 7.5 were prepared and incubated with 700 ng of Apyrase (mutant prepared in Example 1 and wild-type Shigella flexneri apyrase as control) for 30 minutes at 37° C. (100 μL reaction). After the incubation, 100 μL AMFAS reagent was added and OD was taken at 630 nm using multimode reader (Biotek instruments). The color formation is proportional to the amount of ATP degraded (dephosphorylated to ADP or AMP). […] Specific activity at 10 mM ATP was determined as 6.3 μmoles/min/mg for the mutant apyrase.

[11] = pNPP dephosphorylation assay (Example 3); assay type: biochemical; conditions: 2 μg enzyme, 3 mM pNPP, 50 mM Tris pH 7.5, 37° C., 15 minutes, FIG. 5
Procedure: Wild-type and mutant apyrase from Example 1 (2 μg each) were incubated with 3 mM pNPP (pNPP was dissolved in 50 mM Tris pH 7.5) in a 100 μL reaction mixture. Control reaction with pNPP lacking WT and mutant apyrase was also included. These were incubated at 37° C. for 15 minutes and absorbance was taken at 405 nm.
as §4, §5

[12] = TPP assay / affinity (Examples 4-5); assay type: biochemical; conditions: 5.0 mM TPP, 20 minutes, 37° C.; FIG. 8B, 9C
Procedure: A stock of freshly prepared TPP (50 mM) was prepared before performing every assay. […] Hydrolysis of Thiamine pyrophosphate (TPP) releases Thiamine, which forms a thiochrome fluorophore on addition of hydrogen peroxide and horse radish peroxidase (HRP) in alkaline conditions (NaOH-HRP-H2O2-1M NaOH, 5 U/mL HRP, 50 mM H2O2 mixed in a volumetric ratio of 3:1:1). Fluorescence was measured using multi-mode spectrophotometer (Biotek instruments) with excitation at 368 nm and emission at 450 nm.
as §2

[13] = Bhargava et al. Current Science 1995; cited from earlier work
[14] = pNPP assay / affinity (Examples 4-5); assay type: biochemical; conditions: 2.0 mM pNPP, 20 minutes, 37° C.; FIG. 8A, 9B
Source text: as §3, §2

Shigella flexneri apyrase, mutant apyrase of Example 1, SEQ ID NO: 3 (S50N, F54V, G63R, L66V, N70Q, E77V, A791, D90T, S97T, L108M, Q113N, V120R, K124R, Y127Q, P143R, 1151L, F162N, A167G, N174Q, K177R, L182F, G184A, W199Y, G206R, V213A, N219K, F223W, L227S, F234Y, T239Q, E243D) (Shigella flexneri; A167G/A79I/D90T/E243D/E77V/F162N/F223W/F234Y/F53V/G185A/G206R/G63R/I151L/K124R/K178R/L108M/L182F/L227S/L66V/N174Q/N219K/N70Q/P143R/Q113N/S50N/S97T/T239Q/V120R/V213A/W199Y/Y127Q)
Km [1]: 2.1 mM

EIEC apyrase (Escherichia coli)
Km [2]: 0.021 mM | Km [3]: 25.0 mM

Shigella flexneri apyrase (ApiOne, SEQ ID NO: 1) ApiTwo mutant L66V (Shigella flexneri; L66V)
Km [4]: 0.76 mM | Km [5]: 5.6 mM

O=[N+]([O-])c1ccc(OP(=O)(O)O)cc1 [pNPP, para-Nitrophenylphosphate]
Km [6]: 8.4 mM | Km [7]: 3.5 mM | Km for pNPP [8]: Too low affinity

B1: Mutant apyrase (protein)
chain: MKTKNFLLFCIATNMIFIPSANALKAEGFLTQQTSPDSLSILPPPPAENNVVVQADKAHYEFRRSVRDAQRVRLASVDIYYENFGLAFSTAYGMDITRENTPILYQLMTQVLNDSHDYARRNAREYQKRVRPFVIYKDATCTRDKDEKMALTGSYPSGHASNGWAVGLILAEIQPQRRAEIFRRAYEFGESRVICGAHYQSDVEARRLMGASAVAVLHKTPEWTKSSSEAKKEYEELNQPTNDLTPLEHHHHHH
modifications: Synthetic construct mutated variant
ATP hydrolysis by periplasmic fraction [9]: can hydrolyse ATP similar to the WT apyrase | ATP degradation activity compared with wild-type ([10]; ATP 100 mM to 0.01 mM, 37° C., FIG. 4): indistinguishable from the wild-type enzyme | Specific activity ([10]; at 10 mM ATP): 6.3 µmol/min/mg | pNPP hydrolysis ([11]; listed as mutant): has acquired the ability to hydrolyse pNPP | pNPP hydrolysis ([11]; listed as mutant apyrase): considerable activity

B2: ApiOne: wild-type Shigella flexneri apyrase, SEQ ID NO: 1, termed ApiOne (protein, listed as Shigella flexneri)
chain: MKTKNFLLFCIATNMIFIPSANALKAEGFLTQQTSPDSLSILPPPPAENSVVFQADKAHYEFGRSLRDANRVRLASEDAYYENFGLAFSDAYGMDISRENTPILYQLLTQVLQDSHDYAVRNAKEYYKRVRPFVIYKDATCTPDKDEKMAITGSYPSGHASFGWAVALILAEINPQRKAEILRRGYEFGESRVICGAHWQSDVEAGRLMGASVVAVLHNTPEFTKSLSEAKKEFEELNTPTNELTP
pNPP hydrolysis [11]: not active | pNPP hydrolysis ([11]; listed as wildtype enzyme): lacks such activity | Hydrolysis of TPP (in words) [12]: no detectable activity | Hydrolysis of pNPP [13]: does not hydrolyse

B3: F53V: Shigella flexneri apyrase (SEQ ID NO: 1) with single substitution F53V (protein, listed as Shigella flexneri)
chain: B2 chain with F53V
Hydrolysis of pNPP (in words) [14]: could hydrolyse | Hydrolysis of TPP (in words) [12]: could hydrolyse

B4: E77V: Shigella flexneri apyrase (SEQ ID NO: 1) with single substitution E77V (protein, listed as Shigella flexneri)
chain: B2 chain with E77V
Hydrolysis of pNPP (in words) [14]: could hydrolyse | Hydrolysis of TPP (in words) [12]: could hydrolyse

B5: L66V (protein, listed as Shigella flexneri)
chain: B2 chain with L66V
Hydrolysis of pNPP (in words) [14]: could hydrolyse | Hydrolysis of TPP (in words) [12]: could hydrolyse
